Legend:
[1] = biological target: T1, Recombinant HIV-1 IIIB gp120 derived from CHO cells (ImmunoDx) (HIV-1 IIIB, UniProt P04578 33-511); experiment: lectin-functionalized plate, labelled glycoprotein, fluorescence read-out
T1 construct: also called HIV-1 IIIB gpl20; HIV-1 gp120

[2] = biological target: T1, Recombinant HIV-1 IIIB gp120 derived …; experiment: flow cytometry on HEK293T point-mutant transfectants

B1: Sambucus Nigra Agglutinin (other)
chain: VTPPVYPSVSFNLTGADTYEPFLRALQEKVILGNHTAFDLPVLNPESQVSDSNRFVLVPLTNPSGDTVTLAIDVVNLYVVAFSSNGKSYFFSGSTAVQRDNLFVDTTQEELNFTGNYTSLERQVGFGRVYIPLGPKSLDQAISSLRTYTLTAGDTKPLARGLLVVIQMVSEAARFRYIELRIRTSITDASEFTPDLLMLSMENNWSSMSSEIQQAQPGGIFAGVVQLRDERNNSIEVTNFRRLFELTYIAVLLYGCAPVTSSSYSNNAIDAQIIKMPVFRGGEYEKVCSVVEVTRRISGWDGLCVDVRYGHYIDGNPVQLRPCGNECNQLWTFRTDGTIRWLGKCLTASSSVMIYDCNTVPPEATKWVVSIDGTITNPHSGLVLTAPQAAEGTALSLENNIHAARQGWTVGDVEPLVTFIVGYKQMCLRENGENNFVWLEDCVLNRVQQEWALYGDGTIRVNSNRSLCVTSEDHEPSDLIVILKCEGSGNQRWVFNTNGTISNPNAKLLMDVAQRDVSLRKIILYRPTGNPNQQWITTTHPA
notes: also called SNA
binding result [1]: no binding (tested: 10, 2 and 0.4 μg/ml)

B2: DC-SIGN CRD single point mutant S360A, stably expressed on HEK293T cells (receptor)
chain: MSDSKEPRLQQLGLLEEEQLRGLGFRQTRGYKSLAGCLGHGPLVLQLLSFTLLAGLLVQVSKVPSSISQEQSRQDAIYQNLTQLKAAVGELSEKSKLQEIYQELTQLKAAVGELPEKSKLQEIYQELTRLKAAVGELPEKSKLQEIYQELTWLKAAVGELPEKSKMQEIYQELTRLKAAVGELPEKSKQQEIYQELTRLKAAVGELPEKSKQQEIYQELTRLKAAVGELPEKSKQQEIYQELTQLKAAVERLCHPCPWEWTFFQGNCYFMSNSQRNWHDSITACKEVGAQLVVIKSAEEQNFLQLQSSRSNRFTWMGLSDLNQEGTWQWVDGSPLLPSFKQYWNRGEPNNVGEEDCAEFAGNGWNDDKCNLAKFWICKKSAASCSRDEEQFLSPAPATPNPPPA
notes: whole, on cells
binding result [2]: binds

B3: DC-SIGN CRD single point mutant V351A, stably expressed on HEK293T cells (receptor)
chain: MSDSKEPRLQQLGLLEEEQLRGLGFRQTRGYKSLAGCLGHGPLVLQLLSFTLLAGLLVQVSKVPSSISQEQSRQDAIYQNLTQLKAAVGELSEKSKLQEIYQELTQLKAAVGELPEKSKLQEIYQELTRLKAAVGELPEKSKLQEIYQELTWLKAAVGELPEKSKMQEIYQELTRLKAAVGELPEKSKQQEIYQELTRLKAAVGELPEKSKQQEIYQELTRLKAAVGELPEKSKQQEIYQELTQLKAAVERLCHPCPWEWTFFQGNCYFMSNSQRNWHDSITACKEVGAQLVVIKSAEEQNFLQLQSSRSNRFTWMGLSDLNQEGTWQWVDGSPLLPSFKQYWNRGEPNNAGEEDCAEFSGNGWNDDKCNLAKFWICKKSAASCSRDEEQFLSPAPATPNPPPA
notes: whole, on cells
binding result [2]: binds

B4: DC-SIGN CRD single point mutant D367A, stably expressed on HEK293T cells (receptor)
chain: MSDSKEPRLQQLGLLEEEQLRGLGFRQTRGYKSLAGCLGHGPLVLQLLSFTLLAGLLVQVSKVPSSISQEQSRQDAIYQNLTQLKAAVGELSEKSKLQEIYQELTQLKAAVGELPEKSKLQEIYQELTRLKAAVGELPEKSKLQEIYQELTWLKAAVGELPEKSKMQEIYQELTRLKAAVGELPEKSKQQEIYQELTRLKAAVGELPEKSKQQEIYQELTRLKAAVGELPEKSKQQEIYQELTQLKAAVERLCHPCPWEWTFFQGNCYFMSNSQRNWHDSITACKEVGAQLVVIKSAEEQNFLQLQSSRSNRFTWMGLSDLNQEGTWQWVDGSPLLPSFKQYWNRGEPNNVGEEDCAEFSGNGWNDAKCNLAKFWICKKSAASCSRDEEQFLSPAPATPNPPPA
notes: whole, on cells
binding result [2]: binds
